Reference: patent US20200377587A1 (NANTBIO, published 2020)
Residue numbers refer to the chain shown, from its start. “And” between values parts separate entries of the source, which are not always exact repeats. Equal entries are not always repeated.

Experiments:
IL-8 [1] = target: T1, IL-8 (UniProt P10145 28-99, limits assumed); experiment: SPR, immobilized IL-8, scFv, 25 C
T1 construct: also called Interleukin-8; immobilized IL-8
T1 sequence (looked up): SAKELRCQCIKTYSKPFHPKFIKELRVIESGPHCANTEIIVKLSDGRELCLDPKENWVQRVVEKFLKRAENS
Protocol: (§1) Here, scFv and corresponding humanized IgG₁ were prepared using the sequences as indicated, and KD was determined using SPR with immobilized IL-8 as […] on the chip surface. All values are expressed as nanoM values at temperatures as indicated.

IL-8 [2] = target: T1, IL-8; experiment: SPR, immobilized IL-8, IgG, 37 C
Protocol: as §1

IL-8 [3] = target: T1, IL-8; experiment: SPR, immobilized IL-8, IgG1, 25 C
Protocol: as §1

IL-8 [4] = target: T1, IL-8; experiment: SPR, lower panel; no pH label is printed on this sheet (the lower panel of Fig.4A is pH6.0; the text names pH 7.4 and pH 6.0)
Protocol: (§2) In yet another set of experiments, the inventors used affinity maturation (here: random mutagenesis of CDR regions in VH and VL chains and mRNA display selection) of one previously identified IL-8 binder (here: 43-12, sequence in Table 1), and SPR analysis was performed on selected mutant forms using two different pH conditions, pH 7.4 and pH 6.0.

IL-8 [5] = target: T1, IL-8; experiment: SPR, upper panel; no pH label is printed on this sheet (the upper panel of Fig.4A is pH7.4; the text names pH 7.4 and pH 6.0)
Protocol: as §2

IL-8 [6] = target: T1, IL-8; experiment: SPR, IgG1, 37 C, pH 7.4, preliminary KD
Text: (§3) The inventors contemplate that the binding affinities of the scFv, recombinant antibody or fragment thereof, to IL-8 may be different due to the structural differences even if the scFv, recombinant antibody or fragment thereof, are generated using the same amino acid sequences of VH segment and/or VL segments. For example, Table 2 provides different affinities (measured in KD value) of scFv and recombinant antibody (IgG1) of several clones. Clone 49-31 is a scFv or a recombinant antibody (IgG1) generated using amino acid sequences encoding VH segment (SEQ ID No. 1) and VL segment (SEQ ID No. 16), Clone 43-2 is a scFv or a recombinant antibody (IgG1) generated using amino acid sequences encoding VH segment (SEQ ID No. 8) and VL segment (SEQ ID No. 23), and Clone 43-12 is a scFv or a recombinant antibody (IgG1) generated using amino acid sequences encoding VH segment (SEQ ID No.10) and VL segment (SEQ ID No. 25). Preliminary KD values are determined by surface plasmon resonance measurement, and highest and lowest values are shown to estimate the range of the affinities to IL-8.

IL-8 [7] = target: T1, IL-8; experiment: SPR, IgG1, 25 C, pH 6.0, preliminary KD, lowest and highest value
Text: as §3

IL-8 [8] = target: T1, IL-8; experiment: SPR, IgG1, 25 C, pH 7.4, preliminary KD, lowest and highest value
Text: as §3

IL-8 [9] = target: T1, IL-8; experiment: SPR, IgG1, 25 C, pH 7.4, preliminary KD
Text: as §3

IL-8 [10] = target: T1, IL-8; experiment: SPR, IgG1, 37 C, pH 7.4, preliminary KD, lowest and highest value
Text: as §3

IL-8 [11] = target: T1, IL-8; experiment: SPR, IgG1, 37 C, pH 7.4, preliminary KD; IgG1, 37 C, pH 7.4
Text: as §3

IL-8 [12] = target: T1, IL-8; experiment: SPR, IgG1, 25 C, pH 7.4, preliminary KD, lowest and highest value; lowest value of the range; IgG1, 25 C, pH 7.4
Text: as §3

IL-8 [13] = target: T1, IL-8; experiment: SPR, scFv, preliminary KD
Text: as §3

B1: scFv 49-32 (scFv, V domains shown)
VH: EVQLVESGGGLVQPGGSLRLSCAASGFTFSSYAMHWVRQAPGKGLEWVSAIYGNGGSTYYADSVKGRFTISRDNSKNTLYLQMNSLRAEDTAVYYCARDLYTIEPREAFDVWGQGTLVTVSS
VL: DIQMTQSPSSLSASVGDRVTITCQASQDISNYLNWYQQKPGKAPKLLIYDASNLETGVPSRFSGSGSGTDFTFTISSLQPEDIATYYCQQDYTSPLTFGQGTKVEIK
notes: also called Clone 49-32
Kd (IL-8 [1]): 0.21 to 0.24 nM

B2: IgG1 49-32 (antibody, V domains shown)
VH: B1 VH
VL: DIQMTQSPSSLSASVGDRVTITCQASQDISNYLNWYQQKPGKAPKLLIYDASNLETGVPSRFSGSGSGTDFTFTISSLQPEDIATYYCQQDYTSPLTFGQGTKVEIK
notes: also called 49-32 IgG1; Clone 49-32
Kd (IL-8 [2]): 0.33 to 0.36 nM
Kd (IL-8 [3]): 0.77 to 0.87 nM

B3: scFv 49-3 (scFv, V domains shown)
VH: EVQLVESGGGLVQPGGSLRLSCAASGFTFSSYAMTWVRQAPGKGLEWVSVISGSGGSTRYADSVKGRFTISRDNSKNTLYLQMNSLRAEDTAVYYCARDRKFPYVQFFRNGFDVWGQGTLVTVSS
VL: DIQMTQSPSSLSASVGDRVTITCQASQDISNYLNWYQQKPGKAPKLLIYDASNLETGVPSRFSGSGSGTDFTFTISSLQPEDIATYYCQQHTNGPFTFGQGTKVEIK
notes: also called Clone 49-3
Kd (IL-8 [1]): 1.26 nM

B4: IgG1 49-3 (antibody, V domains shown)
VH: B3 VH
VL: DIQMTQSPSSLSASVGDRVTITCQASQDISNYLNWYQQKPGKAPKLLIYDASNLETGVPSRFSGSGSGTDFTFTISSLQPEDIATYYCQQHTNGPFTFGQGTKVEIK
notes: also called 49-3 IgG1; Clone 49-3
Kd (IL-8 [2]): 9.19 nM
Kd (IL-8 [3]): 2.14 nM

B5: scFv 49-18 (scFv, V domains shown)
VH: EVQLVESGGGLVQPGGSLRLSCAASGFTFSSYAMNWVRQAPGKGLEWVSAISWSGGNTYYADSVKGRFTISRDNSKNTLYLQMNSLRAEDTAVYYCARDLYAGYWGFDVWGQGTLVTVSS
VL: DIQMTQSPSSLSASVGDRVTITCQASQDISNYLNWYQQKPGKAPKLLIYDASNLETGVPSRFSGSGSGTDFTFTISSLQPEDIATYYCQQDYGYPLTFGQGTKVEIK
notes: also called Clone 49-18
Kd (IL-8 [1]): 0.41 to 0.89 nM

B6: scFv 43-12b (scFv, V domains shown)
VH: EVQLVESGGGLVQPGGSLRLSCAASGFTFSSYLMHWVRQAPGKGLEWVSAISGSGGITYYADSVKGRFTISRDNSKNTLYLQMNSLRAEDTAVYYCARDREGWFWHSYGFDVWGQGTLVTVSS
VL: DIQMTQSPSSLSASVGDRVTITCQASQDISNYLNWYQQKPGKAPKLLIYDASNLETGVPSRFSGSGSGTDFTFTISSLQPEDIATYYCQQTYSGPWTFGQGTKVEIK
notes: Derived from 43-12 by random mutagenesis of the CDRs and mRNA display
Kd (IL-8 [4]): 2.3 nM
koff (IL-8 [4]): 0.00076 s⁻¹
kon (IL-8 [4]): 330000 M⁻¹ s⁻¹
Kd (IL-8 [5]): 2 nM
koff (IL-8 [5]): 0.0002 s⁻¹
kon (IL-8 [5]): 100000 M⁻¹ s⁻¹

B7: recombinant antibody (IgG1) 43-12 (antibody, V domains shown)
VH: B6 VH with I57S
VL: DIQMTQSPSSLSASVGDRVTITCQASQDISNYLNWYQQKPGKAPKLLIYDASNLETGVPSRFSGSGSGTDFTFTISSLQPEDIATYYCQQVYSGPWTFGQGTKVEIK
notes: IgG1 ('corresponding humanized IgG1'); also called 43-12 IgG1; Clone 43-12
Kd (IL-8 [2]): 0.31 nM
Kd (IL-8 [3]): 0.43 to 0.78 nM
Kd (IL-8 [6]): 0.31 nM
Kd (IL-8 [7]): 3.46 to 6.7 nM
Kd (IL-8 [8]): 0.43 to 0.78 nM

B8: recombinant antibody (IgG1) 43-2 (antibody, V domains shown)
VH: EVQLVESGGGLVQPGGSLRLSCAASGFTFSSYAMHWVRQAPGKGLEWVSAISGSGGKTYYADSVKGRFTISRDNSKNTLYLQMNSLRAEDTAVYYCARDREAPFYTVYVTGFDVWGQGTLVTVSS
VL: DIQMTQSPSSLSASVGDRVTITCQASQDISNYLNWYQQKPGKAPKLLIYDASNLETGVPSRFSGSGSGTDFTFTISSLQPEDIATYYCQQDADTPLTFGQGTKVEIK
notes: IgG1 ('corresponding humanized IgG1'); also called 43-2 IgG1; Clone 43-2
Kd (IL-8 [2]): 0.72 to 0.89 nM
Kd (IL-8 [3]): 0.79 nM
Kd (IL-8 [9]): 0.79 nM
Kd (IL-8 [10]): 0.72 nM and 0.89 nM

B9: recombinant antibody (IgG1) 49-31 (antibody, V domains shown)
VH: EVQLVESGGGLVQPGGSLRLSCAASGFTFSSYYMHWVRQAPGKGLEWVSAISGGGSSTYYADSVKGRFTISRDNSKNTLYLQMNSLRAEDTAVYYCARDLRIFEGRDAGFDVWGQGTLVTVS
VL: B8 VL with A92D, T94V, L96W
notes: IgG1 ('corresponding humanized IgG1'); also called 49-31 IgG1; Clone 49-31
Kd (IL-8 [2]): 0.12 nM
Kd (IL-8 [3]): 0.099 to 0.25 nM
Kd (IL-8 [11]): 0.117 nM
Kd (IL-8 [7]): 0.21 to 0.22 nM
Kd (IL-8 [12]): 0.009 to 0.25 nM

B10: scFv 43-2 (scFv, V domains shown)
VH: B8 VH
VL: B8 VL
notes: also called Clone 43-2
Kd (IL-8 [13]): 1.41 nM
Kd (IL-8 [1]): 1.41 nM

B11: scFv 49-22 (scFv, V domains shown)
VH: EVQLVESGGGLVQPGGSLRLSCAASGFTFTSYAMHWVRQAPGKGLEWVSAISGSGGSTYYADSVKGRFTISRDNSKNTLYLQMNSLRAEDTAVYYCARDLDMFVPFWPAFDVWGQGTLVTVSS
VL: B8 VL with D91A, A92S
notes: also called Clone 49-22
Kd (IL-8 [1]): 0.11 to 0.114 nM

B12: scFv 49-34 (scFv, V domains shown)
VH: EVQLVESGGGLVQPGGSLRLSCAASGFTLGSYAMHWVRQAPGKGLEWVSAISGSGGSTYYADSVKGRFTISRDNSKNTLYLQMNSLRAEDTAVYYCARDRDTVSIEVGFDVWGQGTLVTVSS
VL: B8 VL with A92S, D93A, T94F
notes: also called Clone 49-34
Kd (IL-8 [1]): 0.44 to 0.62 nM

B13: scFv 49-7 (scFv, V domains shown)
VH: EVQLVESGGGLVQPGGSLRLSCAASGFTFSSYAMHWVRQAPGKGLEWVSAISNSGASTYYADSVKGRFTISRDNSKNTLYLQMNSLRAENTAVYYCARDLMRWWIDGFDVWGQGTLVTVSS
VL: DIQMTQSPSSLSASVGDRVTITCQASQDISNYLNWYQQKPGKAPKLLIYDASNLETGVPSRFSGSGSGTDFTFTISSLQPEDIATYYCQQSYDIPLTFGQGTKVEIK
notes: also called Clone 49-7
Kd (IL-8 [1]): 0.087 to 0.17 nM
